Data from patent publication US20240252641A1 (TCR2 THERAPEUTICS, published 2024).

T1: CD70 on cells (CHO-CD70, JVM-3, U266, Raji, THP-1, T cells) (human, UniProt P32970 1-193)
T1 construct: whole, on cells; also called cell-surface CD70
T1 sequence (looked up): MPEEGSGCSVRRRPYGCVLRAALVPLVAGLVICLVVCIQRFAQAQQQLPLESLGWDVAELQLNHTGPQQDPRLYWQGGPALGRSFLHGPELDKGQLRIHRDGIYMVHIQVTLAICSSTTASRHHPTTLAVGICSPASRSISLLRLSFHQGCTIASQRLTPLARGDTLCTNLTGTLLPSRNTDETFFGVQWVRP

T2: human CD70, recombinant, N-terminally biotinylated (residues 39-193) (human, UniProt P32970 39-193, N-terminal biotin)
T2 construct: range 39-193; the same entry is used there; also called biotinylated human CD70; CD70 biotin
T2 sequence (looked up): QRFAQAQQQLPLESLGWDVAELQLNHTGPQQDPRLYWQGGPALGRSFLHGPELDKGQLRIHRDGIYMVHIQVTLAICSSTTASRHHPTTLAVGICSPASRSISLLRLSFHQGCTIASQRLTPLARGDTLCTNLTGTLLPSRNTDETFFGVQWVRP


Assays:
[1] = target: T1, CD70 on cells (CHO-CD70, JVM-3, U266, …); assay: 1.25 µg/mL scFv on CHO-CD70 cells
Outline: (§1)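 Human scFv antibodies were raised by panning a naïve human library against the CD70 extracellular domain (aa39-193). They were tested for binding to tumour cell lines with high CD70 expression (CHO-CD70, JVM3, U266) and low CD70 expression (CHO WT, K562). Cell binding was recorded per cell line, and the detection method is not stated.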

[2] = target: T2, human CD70, recombinant, N-terminally …; assay: CD27 blocking ELISA, 3 µM scFv, anti-His/HRP; also: unit not given here
Method: Human scFv antibodies binding CD70 were generated by panning a naïve human library with the extracellular domain (aa39-193) of CD70. 53 antibodies were identified. The ability of CD27 to block CD70 binding of the identified antibodies was measured by ELISA using two different assays. In the first assay, CD27 and his-tagged scFv anti-CD70 binders were simultaneously added to surface bound CD70, and the ability of the scFv binders to bind CD70 was detected with anti-His HRP. In the second assay, plate-bound CD70 was pre-incubated with CD27 for 30 minutes, and then additional CD27 and the his-tagged scFv anti-CD70 binder was added. The ability of the scFv binders to bind CD70 was detected with anti-His HRP. FIG. 34 is a schematic of the two different CD27 blocking assays. CD70 affinity was also measured by SPR analysis. scFv antibodies were also tested for their ability to bind tumor cell lines with high (CHO-CD70, JVM3, and U266) and low levels (CHO WT and K562 of CD70 expression. Results for 39 antibodies are shown in Table 1 below.

[3] = target: T2, human CD70, recombinant, N-terminally …; assay: CD27 blocking ELISA, 3 µM scFv, strep/HRP
[4] = target: T1, CD70 on cells (CHO-CD70, JVM-3, U266, …); assay: 1.25 µg/mL scFv on JVM-3 cells
Outline: as §1

[5] = target: T1, CD70 on cells (CHO-CD70, JVM-3, U266, …); assay: 1.25 µg/mL scFv on U266 cells
Outline: as §1

[6] = target: T2, human CD70, recombinant, N-terminally …; assay: SPR
Outline: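 Surface plasmon resonance (SPR) was used to determine the affinity (Kd) of human scFv antibodies for recombinant, N-terminally biotinylated human antigen. These antibodies were selected from a naïve human library panned against the CD70 extracellular domain, spanning aa39-193.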

| Binder | cell binding [1] | anti His/HRP [2] | strep/HRP [3] | cell binding [4] | cell binding [5] | Kd [6] |
| --- | --- | --- | --- | --- | --- | --- |
| 4-TC4-I-G08 (scFv, His-tagged) scFv: QVQLVQSGGGVVQPGRSLRLSCAASGFTFSSYAMHWVRQAPGKGLEWVAVISYDGSNKYYADSVKGRFTISRDNAKNSLYLQMNSLRDEDTAVYYCARDESFDYGVDVWGKGTTVTVSSGGSGGSGGSGGSSSELTQDPAVSVALGQTVRITCQGDSLRSYYASWYQQKPGQAPVLVIYGKNNRPSGIPDRFSGSSSGNTASLTITGAQAEDEADYYCNSRDSSGNHLVVFGGGTKLTVL | 387000 | 2.29 | 1.03 | 34000 | 23500 | 1410 nM |
| 42-TC4-VII-G08 (scFv, His-tagged) scFv: QVQLVQSGGGVVQPGRSLRLSCAASGFTFSSYAMHWVRQAPGKGLEWVAVISYDGSNKYYADSVKGRFTISRDNSKNTLYLQMNSLRAEDTAVYYCARDLSYDYGFDYWGQGTLVTVSSGGSGGSGGSGGSSSELTQDPAVSVALGQTVRITCQGDSLRSYYASWYQQKPGQAPVLVIYGKNNRPSGIPDRFSGSSSGNTASLTITGAQAEDEADYYCNSRDSSGNHLVVFGGGTKVTVL | 364000 | 2.34 | 1.11 | 33900 | 13100 | 179 nM |
| 49-TC4-XVI-F01 (scFv, His-tagged) scFv: QVQLVESGGGVVQPGRSLRLSCAASGFTFSSYAMHWVRQAPGKGLEWVAVISYDGSNKYYADSVKGRFTISRDNSKNTLYLQMNSLRAEDTAVYYCARDSTQDYGMDVWGQGTMVTVSSGGSGGSGGSGGSSSELTQDPAVSVALGQTVRITCQGDSLRNYYASWYQQKPGQAPVLVFYGKNNRPSGIPDRFSGSSSGNTASLTITGAQAEDEADYYCNSRDSSGNHLVVFGGGTKLTVL | 134000 | 2.12 | 1.29 | 5410 | 2980 | 1060 nM |
| 50-TC7-III-A11 (scFv, His-tagged; also called 1985) scFv: QVQLVQSGAEVKRPGASVKVSCKASGYTFTSYYMHWVRQAPGQGLEWMGIINPSGGSTSYAQKFQGRVTMTRDTSTSTVYMELSSLRSEDTAVYYCAIEPGYCSGGSCYPDAFDIWGQGTTVTVSSGGSGGSGGSGGSQSVLTQPPSASGTPGQRVTISCSGSSSNIGSDYVYWYQRVPGTAPKLLIYRDNQRPSGVPDRFSGSKSGTSASLAISGLRSDDEADYYCAAWDDSLSGWVFGGGTKVTVL | 122000 | 2.25 | 0.868 | 12200 | 45000 | 4190 nM |
| 60-TC7-VII-C02 (scFv, His-tagged) scFv: QVQLQQWGAGLLKPSETLSLTCAVYGGSFSGYYWSWIRQPPGKGLEWIGEINHSGSTNYNPSLKSRVTISVDTSKNQFSLKLSSVTAADTAVYYCARSPLWFGPPDAFDIWGQGTMVTVSSGGSGGSGGSGGSQSALTQPPSASGSPGQSVSISCTGTSSDVGGYNYVSWYQQHPGKAPKLIIYDVDKRPSGIPERFSGSNSGNTATLTISGTQAMDEADYYCQAWDSSTEVVFGGGTKVTVL | 458000 | 1.27 | 1.58 | 10800 | 5040 | 135 nM |
| 53-TC7-VI-B06 (scFv, His-tagged) scFv: EVQLLESGGGVVQPGRSLRLSCAASGFTFSSYGMHWVRQAPGKGLEWVAVISYDGSNKYYADSVKGRFTISRDNSKNTLYLQMNSLRAEDTAVYYCAKGELELTNWGQGTLVTVSSGGSGGSGGSGGSSYELTQPPSVSVAPGQTARITCGGNNIGSKSVHWYQQKSGQAPVLVVYDDTDRPSGTPERFSGSNSGNTATLTISGTQAMDEADYYCQAWDSSTAVFGTGTKVTVL | 12200 | 1.38 | 1.44 | 1830 | 1170 | 235 nM |
| 37-TC7-VII-D05 (scFv, His-tagged) scFv: QMQLVQSGGGVVQPGRSLRLSCAASGFTFSSYAMHWVRQAPGKGLEWVAVISYDGSNKYYADSVKGRFTISRDNSKNTLYLQMNSLRAEDTAVYYCARDALWDTATFDYWGQGTLVTVSSGGSGGSGGSGGSSSELTQDPAVSVALGQTVRITCQGDSLRSYYASWYQQKPGQAPVLVIYGKNNRPSGIPDRFSGSSSGNTASLTITGAQAEDEADYYCNSRDSSGNPWVFGGGTKLTVL | 111000 | 2.28 | 0.655 | 11000 | 15900 | 5640 nM |
| 32-TC1.2-I-F07-6 (scFv, His-tagged) scFv: QVQLVQSGAEVKKPGESLKISCKGSGYSFTSYWIGWVRQMPGKGLEWMGIIYPGESDTRYSPSFQGQVTISADKSISTAYLQWSSLKASDTAMYYCARRNYYDRSGYVDAFDIWGQGTMVTVSSGGSGGSGGSGGSSSELTQDPAVSVALGQTVRITCQGDSLRRFYASWHQQKPGQAPIVVMYAENNRPSGIPDRFSGSSSGNTASLTITGAQAEDEATYYCNSRDSSGNRHVFGTGTKLTVL | 553000 | 2.42 | 0.113 | 57300 | 20700 | 7.41 nM |
| 47-TC7-III-D10 (scFv, His-tagged) scFv: QVQLVQSGAEVKKPGASVKVSCKASGYTFTSYGISWVRQAPGQGLEWMGWISAYNGNTNYAQKLQGRVTMTTDTSTSTAYMELRSLRSDDTAVYYCARDSSSWYYYYGMDVWGQGTTVTVSSGGSGGSGGSGGSSYELTQPPSVSVSPGQTARISCSGDALPNQYAYWYQQKPGQAPVLVIYQDSERPSGIPERFSGSSSGTTVTLTISGVQAEDEADYYCQSADTYGTSWVFGGGTKLTVL | 313000 | 1.5 | 1.55 | 34700 | 19000 | 18.6 nM |
| 16-TC4-I-C11 (scFv, His-tagged) scFv: QVQLVQSGAEVKKPGSSVKVSCKASGGTFSSYAISWVRQAPGQGLEWMGWISAYNGNTNYAQKLQGRVTMTTDTSTSTAYMELRSLRSDDTAVYYCARVTPPGWLGNMDVWGKGTTVTVSSGGSGGSGGSGGSSYELMQSPSVSVAPGQTARITCGGRDIGSKSVHWYQQKPGQAPVLVVYDDSDRPSGIPERLSGSNFGNEATLTISRVEAGDEGDYFCQVWDSSTDVVFGGGTKVTVL | 660000 | 2.1 | 1.43 | 103000 | 51000 | 40.2 nM |
| 13-TC7-V-H10 (scFv, His-tagged) scFv: QVQLQQWGAGLLKPSETLSLTCAVYGGSFSGYYWSWIRQPPGKGLEWIGEINHSGSTNYNPSLKSRVTISVDTSKNQFSLKLSSVTAADTAVYYCARSRRPYWYFDLWGRGTLVTVSSGGSGGSGGSGGSQSALTQPASVSGSPGQSITISCTGTSSDVGGYNSVSWYRQHPGKAPKLMIYDVTNRPSGVSNRFSGSKSGNTASLTISGLQAEDEADYYCSSSSISATWVFGGGTKLTVL | 601000 | 1.97 | 1.38 | 87500 | 34300 | 66.9 nM |
| 39-TC6-IV-B08 (scFv, His-tagged; also called 1885) scFv: QVQLVESGGGVVQPGGSLRLSCAASGFTFSSYAMHWVRQAPGKGLEWVAVISYDGSNKYYADSVKGRFTISRDNSKNTLYLQMNSLRAEDTAVYYCARDGHPYYYGMDVWGQGTTVTVSSGGSGGSGGSGGSQSALTQPASVSGSPGQSITISCTGTSSDVGDYNYVSWYQHHPGKAPKLMIYDVSNRPSGVSNRFSGSKSGNTASLTISGLQAEDEADYYCGSYTGSDTWVFGGGTKVTVL | 52200 | 2.97 | 0.268 | 25300 | 35900 | 2890 nM |
